According to US8722637B2, “Methods and compositions of IG20 and DENN-SV splice variants” (The Board of Trustees of the University of Illinois, priority 2003, dated 2014):

What was measured:
Assay type in all cases: cell-based, human
PA-1 cells = experiment: TRAIL-induced apoptosis in PA-1 cells (active caspase 3); conditions: TRAIL three hours
Method: FIG. 12: Effects of IG20 on PA-1 Cell Phenotypes. (A) Growth Rates. PA-1 and PA-1-IG20 cells were plated as described in Materials and Methods. Cells were then harvested and counted on the indicated days. Data are presented as mean+standard deviation of three plates for each sample. P values were <0.05 for all test groups. (B) TNFα-Induced Apoptosis. Cells were either untreated or treated with TNFα and cyclohexamide (CHX) for three hours, as described in Materials and Methods and then tested for percentages of cells with active caspase 3. (C) TRAIL-Induced Apoptosis. Cells were either untreated or treated with TRAIL for three hours and then tested for percentages of cells with active caspase 3, in the presence or absence of Z-VAD, an inhibitor of caspase activation. (D) Response to […] and TRAIL Treatment. PA-1-IG20 cells exposed to 6 and 12Gy of […] were plated as described in Materials and Methods. Twenty-four hours later, cells were either untreated or treated with TRAIL for 3 hours. All cells were then harvested and tested for levels of active caspase 3. (E) TNFα- and TRAIL-Induced NFκB Activation. Cells transfected with the NFκB-luciferase reporter were serum-deprived and then subjected to mock, TNFα, TRAIL or zVAD treatments for 5 hours. Cells were then lysed and tested for levels of luciferase activity. […]

caspase-3 = experiment: Caspase-3 activation in HeLa IG20 cells; conditions: 5 hours; TRAIL, or TNF-α and cycloheximide
Method: FIG. 15: IG20 Cells show increased specific activation of caspases upon TRAIL treatment A) Initiator caspases—Hela IG20 cells and control cells treated with TRAIL for 1H, were stained, with flourochrome-conjugated peptide inhibitors of specific active caspases as indicated, fixed and analyzed by FACS. B) Caspase-8 cleavage—IG20 HeLa cells and control cells were treated with TRAIL for either 1H or 3H, lysed and immunoblotted for the 10 kDa cleaved product of active caspase-8 using the 6B6 monoclonal antibody. […]
Caspase activation—To assess the general activation of caspases, cells were stained with FITC tagged caspase inhibitor Val-Ala-Asp-flouromethyl ketone Promega, Madison, Wis.) for 10 minutes at 37° C., washed and analyzed by FACS for percentage of FITC positive cells. The initiator caspases were analyzed by using carboxyflourescein labeled peptide flouromethlyketone inhibitors (FAM-peptide-FMK) directed against active caspase-8, 9 and 10 (APOLOGIX caspase detection kit, Cell Tech Inc., Minneapolis, Minn.). […] Cells were collected, washed once, resuspended in Perm/wash buffer and analyzed by FACS for PE positive population. […]

HeLa IG20 cells = experiment: TRAIL or TNF-α/cycloheximide induced apoptosis in HeLa IG20 cells (caspase activation, TMRE, Hoechst); conditions: 5 hours; TRAIL 100 ng/mL, or 10 ng/mL TNF-α and 10 μg/mL cycloheximide
Method: FIG. 13: IG20 transfected HeLa cells show increased apoptosis upon TRAIL treatment. HeLa-IG20 and control cells were treated for 5 hours with TRAIL at 100 ng/mL or with 10 ng/mL of TNF-α and 10 μg/mL of Cycloheximide and analyzed for apoptosis. A) Activation of caspases—cells were incubated for 10 minutes with FITC labeled general caspase inhibitor VAD FMK (Val-Ala-Asp-flouromethyl ketone) and analyzed by FACS. Numbers in the histogram indicate percentage of FITC positive cells. B) Mitochondrial Depolarization—Loss of the dye TMRE is indicative of mitochondrial depolarization and the numbers shown in the FACS histograms represent percentage of TMRE negative cells. All the above experiments were done in triplicates and results shown are representative histograms. […] D) Percentage of cells with condensed chromatin was calculated by counting 3 fields containing at least 200 cells each and error bars indicate mean±S.D.
Mitochondrial depolarization and chromatin condensation—2×10^5 HeLa IG20 and Vector control cells were plated into a 12-well culture dish and allowed to grow for 48 hours. […] Cells were assessed for loss of mitochondrial membrane potential by staining with tetramethylrhodamine ethyl ester (100 nm, Molecular Probes, Eugene, Oreg.) for 10 minutes, washed once with ice-cold PBS, collected and subjected to FACS analysis. […]

[1] = test system: HeLa IG20 and control cells; experiment: Inhibition of TRAIL induced apoptosis by caspase inhibitors and DN-FADD (active caspase-3); conditions: control and HeLa IG20 cells transfected with inhibitor; TRAIL 100 ng/mL 5 hours
Method: FIG. 16. IG 20 enhanced apoptosis can be inhibited by caspase inhibitors and DN FADD HeLaIG20 and control cells (1×10^5 per well in a 6 well plate) were co-transfected with GFP-F vector along with either Crm A, p35 or DN-FADD in the ratio of 1:10. Twenty-four hours post transfection, TRAIL was added at a concentration of 100 ng/mL for 5 hours and both treated and untreated cells were stained with PE-conjugated anti-caspase3 antibodies and subjected to FACS analyses. The data were obtained from only GFP positive cells and represent 2 independent experiments carried out in duplicate.
Transfection with dominant negative FADD, CrmA and p35 constructs—Control vector and IG20 stably transfected HeLa cells were plated at 5×10^5 overnight and the dominant negative FADD, Crm A and p35 constructs were co-transfected (2 μg each) with farnesylated EGFP at a ratio of 1:5. Equal numbers of wells were co-transfected with an appropriate control vector along with EGFP-F at the same ratio. The transfected cells were left untreated or treated with the TRAIL, or with TNF-α and cycloheximide, for 5 hours and cells were collected and stained for active caspase-3 (anti caspase-3 antibody) and subjected to FACS analysis to detect active caspase-3 staining in GFP-positive cells.

B1: TRAIL: recombinant human TRAIL, TNF Related Apoptosis Inducing Ligand, purchased from Peprotech (protein, UniProt P50591 1-281, looked up)
Tumor necrosis factor ligand …: MAMMEVQGGPSLGQTCVLIVIFTVLLQSLCVAVTYVYFTNELKQMQDKYSKSGIACFLKEDDSYWDPNDEESMNSPCWQVKWQLRQLVRKMILRTSEETISTVQEKQQNISPLVRERGPQRVAAHITGTRGRSNTLSSPNSKNEKALGRKINSWESSRSGHSFLSNLHLRNGELVIHEKGFYYIYSQTYFRFQEEIKENTKNDKQMVQYIYKYTSYPDPILLMKSARNSCWSKDAEYGLYSIYQGGIFELKENDRIFVSVTNEHLIDMDHEASFFGAFLVG
- TRAIL-induced apoptosis (PA-1 cells; PA-1-IG20 cells): highly susceptible to TRAIL-induced apoptosis
- TRAIL-induced apoptosis (PA-1 cells; PA-1 cells): almost completely resistant
- Relative increase in caspase-3 activation, HeLa IG20 relative to control cells (caspase-3): five fold increase
- Increase in cells undergoing apoptosis, HeLa IG20 versus control cells (HeLa IG20 cells): 3-3.5 fold

B2: p35: baculovirus derived general caspase inhibitor (protein, UniProt P08160 1-299, looked up)
Early 35 kDa protein: MCVIFPVEIDVSQTIIRDCQVDKQTRELVYINKIMNTQLTKPVLMMFNISGPIRSVTRKNNNLRDRIKSKVDEQFDQLERDYSDQMDGFHDSIKYFKDEHYSVSCQNGSVLKSKFAKILKSHDYTDKKSIEAYEKYCLPKLVDERNDYYVAVCVLKPGFENGSNQVLSFEYNPIGNKVIVPFAHEINDTGLYEYDVVAYVDSVQFDGEQFEEFVQSLILPSSFKNSEKVLYYNEASKNKSMIYKALEFTTESSWGKSEKYNWKIFCNGFIYDKKSKVLYVKLHNVTSALNKNVILNTIK
- Effect on TRAIL induced apoptosis (active caspase-3) [1]: abrogated TRAIL induced apoptosis
